In experiment [1] the target is T1, MHC class I molecule HLA-A*0201 (iTopia plate-bound monomer) (biotin (bound to streptavidin-coated plate)).
T1 construct: also called A2
Briefly: iTopia off-rate assay, 37 C; fit R^2 0.57. How it is done: (§1) The 9 mers were tested for Peptide Binding, Off Rate and Affinity using iTopia Epitope Discovery System in accordance with the manufacturer's instructions. Briefly, 96 well microtitre plates coated with MHC molecules representing different MHC alleles are used to identify candidate peptides. […] Determinations are performed in duplicate using an ELISA plate reader and included allele specific positive controls.
(§2) A one-phase exponential decay curve, with a plateau given equal to 0, was generated using GraphPad Prism® software, which calculated the t1/2 and goodness-of-fit, as measured by r², for each peptide.

Experiment [2] concerns the target T1, MHC class I molecule HLA-A*0201 (iTopia …). Briefly: iTopia off-rate assay, 37 C; fit R^2 0.81. How it is done:
as §1, §2

The target is the same in experiment [3]. Briefly: iTopia off-rate assay, 37 C; fit R^2 0.91. How it is done: as §1, §2
Experiment [4] shares this target. Briefly: iTopia off-rate assay, 37 C; fit R^2 0.75. As to the method:
as §1, §2

Experiment [5] shares this target. Briefly: iTopia off-rate assay, 37 C; fit R^2 0.95. As to the method:
as §1, §2

Experiment [6] shares this target. Briefly: iTopia off-rate assay, 37 C; fit R^2 0.85. How it is done:
as §1, §2

The target is the same in experiment [7]. Briefly: iTopia off-rate assay, 37 C; fit R^2 0.97. As to the method: as §1, §2
The target is the same in experiment [8]. Briefly: iTopia off-rate assay, 37 C; fit R^2 0.87. As to the method: as §1, §2
The target is the same in experiment [9]. Briefly: iTopia off-rate assay, 37 C; fit R^2 0.98. How it is done: as §1, §2
The target is the same in experiment [10]. Briefly: iTopia off-rate assay, 37 C; fit R^2 0.84. As to the method: as §1, §2
For experiment [11] the target is unchanged. Briefly: iTopia off-rate assay, 37 C; fit R^2 0.78. As to the method:
as §1, §2

Experiment [12] has the same target. Briefly: iTopia off-rate assay, 37 C; fit R^2 0.63. As to the method:
as §1, §2

For experiment [13] the target is unchanged. Briefly: iTopia off-rate assay, 37 C; fit R^2 0.77. As to the method:
as §1, §2

For experiment [14], the target named is T2, MHC class I allele A*0101 monomer (human, biotinylated, bound to streptavidin-coated plate).
T2 construct: placeholder peptide and b2M removed, then reconstituted with test peptide and fresh b2M; also called A1; HLA-A1
Briefly: iTopia, multiparametric iScore. As to the method:
as §1
(§3) Finally, multiparametric analysis is performed on the results from these assays and an iScore is generated. The iScore represents a measure of the overall quality of peptide-MHC binding, enabling candidate peptides to be ranked in order of binding quality and allowing rational prioritisation of peptides for functional cellular follow-up studies.

The target of experiment [15] is T3, MHC class I allele A*0301 monomer (human, biotinylated, bound to streptavidin-coated plate).
T3 construct: also called A3; HLA-A3
Briefly: iTopia, multiparametric iScore. How it is done: as §1, §3

Experiment [16] deals with T4, MHC class I allele A*0201 monomer (human, biotinylated, bound to streptavidin-coated plate).
T4 construct: also called A2; HLA-A2
Briefly: iTopia, multiparametric iScore. As to the method:
as §1, §3

The target of experiment [17] is T1, MHC class I molecule HLA-A*0201 (iTopia …). Briefly: iTopia off-rate assay, 37 C; fit R^2 0.94. As to the method: as §1, §2
For experiment [18] the target is unchanged. Briefly: iTopia off-rate assay, 37 C; fit R^2 0.9. How it is done: as §1, §2
In experiment [19] the target is T5, MHC class I allele B*0702 monomer (human, biotinylated, bound to streptavidin-coated plate).
T5 construct: also called B7; HLA-B7
Briefly: iTopia, multiparametric iScore. As to the method:
as §1, §3

Experiment [20] deals with T2, MHC class I allele A*0101 monomer. Briefly: iTopia, multiparametric iScore. The method, boiled down: (§4)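 9-mer peptides were tested on plates coated with MHC molecules, measuring binding, off-rate and affinity by ELISA in duplicate with allele-specific positive controls.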
The source holds these as a separate data set.

Experiment [21] addresses T5, MHC class I allele B*0702 monomer. Briefly: iTopia, multiparametric iScore. Put shortly:
as §4
The source holds these as a separate data set.

Experiment [22] deals with T3, MHC class I allele A*0301 monomer. Briefly: iTopia, multiparametric iScore. The method, boiled down:
as §4
This is another data set of the same source.

In experiment [23] the target is T4, MHC class I allele A*0201 monomer. Briefly: iTopia, multiparametric iScore. The method, boiled down:
as §4
This is another data set of the same source.

The target in experiment [24] is T1, MHC class I molecule HLA-A*0201 (iTopia …). Briefly: iTopia off-rate assay, 37 C; fit R^2 0.89. As to the method:
as §1, §2

Experiment [25] addresses T6, MHC class I molecule HLA-A*0301 (iTopia plate-bound monomer) (biotin (bound to streptavidin-coated plate)).
T6 construct: also called A3
Briefly: iTopia off-rate assay, 37 C; fit R^2 0.96. How it is done:
as §1, §2

Where two headings read alike, the source gives them in different places.

This passage reports t½ half life and iScore results from patent publication US20090280138A1 (OXFORD BIOMEDICA UK, published 2009).

In the case of LEDNALKVL (also called Peptide No 133) [5T4 9-mer peptide 133 LEDNALKVL], the t½ half life in experiment [1] turned out to be 5.7 h.

The molecule PALCECSEA (also called Peptide No 32) [5T4 9-mer peptide 32 PALCECSEA] gave a t½ half life in [2] of 2.2 h.

B1: 5T4 9-mer peptide 78 ADLSPFAFS (peptide)
peptide: ADLSPFAFS
notes: it stands between 77 and 79; also called Peptide No 78
Molecule B1 yielded a t½ half life in [3] of 2.6 h.

Consider MVTWLKETE (also called Peptide No 153) [5T4 9-mer peptide 153 MVTWLKETE], for which the t½ half life in experiment [4] came out at 1.2 h.

In experiment [5], LELASNHFL [5T4 9-mer peptide 108 LELASNHFL] displayed a t½ half life of 1.4 h.

Take VCDCHMADM (also called Peptide No 149) [5T4 9-mer peptide 149 VCDCHMADM]: the t½ half life in [6] was 1.4 h.

The molecule AQLPSLRHL [5T4 9-mer peptide 116 AQLPSLRHL] displayed a t½ half life in experiment [5] of 0.7 h.

In turn, FLASAVSAQ (also called Peptide No 24) [5T4 9-mer peptide 24 FLASAVSAQ] came in with a t½ half life in experiment [7] of 0.7 h.

In the case of LQGLPHIRV (also called Peptide No 141) [5T4 9-mer peptide 141 LQGLPHIRV], the t½ half life in experiment [8] worked out at 1.1 h.

Take QNRSFEGMV (also called Peptide No 96) [5T4 9-mer peptide 96 QNRSFEGMV]: the t½ half life in experiment [8] stood at 2.4 h.

NLFLTGNQL (also called Peptide No 48) [5T4 9-mer peptide 48 NLFLTGNQL] returned a t½ half life in experiment [9] of 0.5 h.

Take HMADMVTWL [5T4 9-mer peptide 151 HMADMVTWL]: in experiment [10], the t½ half life turned out to be 7.9 h.

Regarding ELILNHIVP (also called Peptide No 89) [5T4 9-mer peptide 89 ELILNHIVP], the t½ half life in experiment [11] is 1.1 h.

Molecule EHLPSLRQL (also called Peptide No 70) [5T4 9-mer peptide 70 EHLPSLRQL] gave a t½ half life in experiment [10] of 1.4 h.

With NRVLLELNS (also called Peptide No 166) [5T4 9-mer peptide 166 NRVLLELNS], the t½ half life in experiment [12] was 1.3 h.

Turning to LSPFAFSGS (also called Peptide No 79) [5T4 9-mer peptide 79 LSPFAFSGS], the t½ half life in experiment [6] came out at 0.4 h.

Molecule AYVRNLFLT (also called Peptide No 46) [5T4 9-mer peptide 46 AYVRNLFLT] displayed a t½ half life in [13] of 6.8 h.

As to LASNHFLYL [5T4 9-mer peptide 109], the figures for the iScore in experiment [14], in experiment [15] and in experiment [16] were 0.12, 0.224 and 0.337, respectively.

For PLPDQCPAL (also called Peptide No 29) [5T4 9-mer peptide 29 PLPDQCPAL], the t½ half life in experiment [13] turned out to be 2.8 h.

Regarding LVELILNHI (also called Peptide No 88) [5T4 9-mer peptide 88 LVELILNHI], the t½ half life in experiment [10] came out at 0.3 h.

In experiment [17], GWVSSSSPT (also called Peptide No 14) [5T4 9-mer peptide 14 GWVSSSSPT] had a t½ half life of 1 h.

In experiment [17], AGDGRLRLA (also called Peptide No 6) [5T4 9-mer peptide 6 AGDGRLRLA] had a t½ half life of 0.1 h.

For AFSGSNASV (also called Peptide No 81) [5T4 9-mer peptide 81 AFSGSNASV], in [5], the t½ half life came to 0.7 h.

As to VLLELNSAD (also called Peptide No 167) [5T4 9-mer peptide 167 VLLELNSAD], the t½ half life in experiment [2] came out at 0.8 h.

Take SPLVELILN (also called Peptide No 87) [5T4 9-mer peptide 87 SPLVELILN]: the t½ half life in experiment [12] is 2.4 h.

On to LLAGRALQG (also called Peptide No 102) [5T4 9-mer peptide 102 LLAGRALQG], for which the t½ half life in experiment [18] came out at 1.4 h.

In [4], TWLKETEVV [5T4 9-mer peptide 154 TWLKETEVV] returned a t½ half life of 6.4 h.

Regarding FARRPPLAE (also called Peptide No 56) [5T4 9-mer peptide 56 FARRPPLAE], the t½ half life in [17] was found to be 0.3 h.

For the molecule GSRLDEVRA (also called Peptide No 64) [5T4 9-mer peptide 64 GSRLDEVRA], the t½ half life in experiment [17] was found to be 1.9 h.

In turn, SSAPFLASA (also called Peptide No 22) [5T4 9-mer peptide 22 SSAPFLASA] gave a t½ half life in experiment [9] of 1.3 h.

As for LTYVSFRNL [5T4 9-mer peptide 125], the iScore is 0.522 in experiment [14]; 0.574 in experiment [19]; 0.157 in [15]; 1.11 in [16]; 0.522 in experiment [20]; 0.574 in experiment [21]. Also, the iScore is 0.157 in experiment [22] and 1.11 in [23].

The molecule AVSAQPPLP (also called Peptide No 26) [5T4 9-mer peptide 26 AVSAQPPLP] registered a t½ half life in experiment [24] of 1.7 h.

The molecule NLTEVPTDL (also called Peptide No 41) [5T4 9-mer peptide 41 NLTEVPTDL] registered a t½ half life in experiment [9] of 1.4 h.

KVLHNGTLA (also called Peptide No 136) [5T4 9-mer peptide 136 KVLHNGTLA]: in [11], the t½ half life came to 2.2 h.

Take TSSASSFSS (also called Peptide No 18) [5T4 9-mer peptide 18 TSSASSFSS]: in experiment [7], the t½ half life came to 0.7 h.

Molecule SASSFSSSA (also called Peptide No 19) [5T4 9-mer peptide 19 SASSFSSSA] showed a t½ half life in [3] of 0.2 h.

Take TLAELQGLP [5T4 9-mer peptide 139 TLAELQGLP]: in experiment [24], the t½ half life was 0.7 h.

Take HMEGYHYRY [5T4 9-mer peptide 198]: the iScore in experiment [14] came to 0.357; in experiment [15], 0.189; in experiment [20], 0.357; in [21] it was 0; in experiment [22] it was 0.189; in experiment [23] it was 0.24.

KWMHNIRDA (also called Peptide No 192) [5T4 9-mer peptide 192 KWMHNIRDA] returned a t½ half life in [6] of 1.4 h.

As to NNPWVCDCH (also called Peptide No 147) [5T4 9-mer peptide 147 NNPWVCDCH], the t½ half life in experiment [25] is 0.2 h.
